Test results as given in patent EP1724347A2 (Yale University, dated 2006).
Where no end group is shown, it is not given here.

Experiments:
[1] = target: T1, Human recombinant Bcl-2 (1-205), soluble GST-fusion (human, UniProt P10415 1-205); assay: change of fluorescence emission of the fluorescein-labeled peptide on titration with Bcl-2, 4°C, PBS
T1 construct: Bought from Santa Cruz Biotechnology; also called GST-Bcl-2; not shown: glutathione S-transferase (GST) fusion partner

[2] = target: Carbonic anhydrase II (Sigma); assay: fluorescence titration of the labeled peptide, PBS
Calmodulin (Sigma) = Calmodulin (Sigma) (Homo sapiens (Human), UniProt P0DP23 2-149); assay: fluorescence titration of the labeled peptide; buffer with 130 mM KCl, 1 mM CaCl2
[3] = target: T2, GST-hDM2 (residues 1-188) (human, UniProt Q00987 1-188); assay: competition with 10 nM p53AD-Flu for 400 nM GST-hDM2; fraction of p53AD-Flu bound at equilibrium
T2 construct: also called human oncoprotein double minute two; not shown: glutathione S-transferase (GST) fusion partner
T2 sequence (Q00987 1-188): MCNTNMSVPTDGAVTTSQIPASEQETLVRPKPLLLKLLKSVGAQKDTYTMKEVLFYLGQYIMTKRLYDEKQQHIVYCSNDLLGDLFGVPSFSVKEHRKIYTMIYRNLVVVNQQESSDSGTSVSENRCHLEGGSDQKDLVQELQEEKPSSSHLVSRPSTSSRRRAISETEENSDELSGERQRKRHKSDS

T1 sequence (P10415 1-205): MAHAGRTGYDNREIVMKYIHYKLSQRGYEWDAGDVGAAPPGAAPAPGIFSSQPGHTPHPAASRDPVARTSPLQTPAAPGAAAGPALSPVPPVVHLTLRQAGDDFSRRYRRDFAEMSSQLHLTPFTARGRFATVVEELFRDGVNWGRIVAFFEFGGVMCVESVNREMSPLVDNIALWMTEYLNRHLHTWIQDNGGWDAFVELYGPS

Kd [1] [µM]	Kd [2] [µM]	Kd (Calmodulin (Sigma)) [µM]	Ki [3] [µM]	Binder
0.363	22	25		GQVGRQLAIIGDDINRYC(5‑iodoacetamidofluorescein)-NH2 (also called Bak BH3 peptide; Bak 72-94) [Bak peptide, fluorescein-labeled form with additional carboxy-terminal YC]
			0.722	GPSQPTYPGDDAPVEDLIRFKFLLQWYLLAL (designed binder, also called p3559) [pZutshi, as competitor (not labeled)]
